# Several values for one entry are separate records, joined by “and”; a condition that tells them apart may be missing. Equal values may be shown once.
# B1: PS4-vcMMAE: PS4 WT maxibody conjugated with vcMMAE (monomethyl auristatin E); average DAR 4.09 (conjugate)
# VH: QVQLVQSGGGLVNPGGSLRLSCAASGFPFSDHYMSWIRQAPGKGLEWVSYISNRGYTIHYADFVKGRFTISRDNAENTLYLQMNSLRAEDTAVYYCARDRGTIDAFDLWGQGTMVTVSS
# VL: QSALTQPASVSGSPGQSITIPCSGTSDDIGRYNYVSWYQQHPGKAPKLLIYDVTRRSSGVSSHFSGSKSGSTASLIISGLQADDEADYFCSSFTNNRTVVFGGGTKLTVL
# modifications: left off: things letters cannot carry; another chain or arm of the molecule; a dimerising Fc or GST; small tags and cut ends
# Tests used:
# [1] = Real-time thermal stability (SYPRO Orange); format: physicochemical; conditions: 2 µM sample, 10.0°C to 95°C
# Method: The method and principle of the experiment were as follows. As the temperature increases, the folded protein denatures, exposing hydrophobic regions, which bind to the SYPRO Orange detection dye, resulting in fluorescence. The point at 1/2 RFUmax is designated as the melting point (Tm). 22.5 µL of the assay sample and 2.5 µL of 50x SYPRO stock solution were added to a 96-well PCR plate (VOLO Semi-Skirted PCR Plate) so that the final concentration of the sample used in the experiment was 2 µM, and the fluorescence was measured using Quantstudio Real-Time PCR (Thermo Fisher scientific) while increasing the temperature by 0.5°C per 10 s from 10.0°C to 95°C. Each sample was tested three times. The fluorescence value of the antibody buffer was set as the background and subtracted, and the value with the greatest slope in the […] of the fluorescence value (dTRFU) was analyzed as the Tm of the corresponding protein.
# [2] = tested on: BT20; experiment: AlamarBlue cell growth inhibition, BT20; format: cell-based; conditions: TNBC, BT20, 4 days
# Method: (§1) First, an appropriate number of cells (3x10^3 to 1x10^4 cells) for each cancer cell line were dispensed into each well of a 96-well plate and cultured for 24 hours at 37°C, 5% CO2, and then the medium was replaced with fresh growth medium. Then, sequentially diluted antibody-drug conjugates were added to each well, and the cells were cultured for 4 days under 37°C, 5% CO2 conditions, and then treated with AlamarBlue (Invitrogen). The fluorescence values were measured at Ex530 and Em590 every 2, 4, and 6 hours (PerkinElmer Victor x4). The obtained fluorescence values were analyzed with Prism4 (GraphPad) to determine the EC50 value. Each experiment was repeated three times.
# [3] = tested on: MDA-MB-468; experiment: AlamarBlue cell growth inhibition, MDA-MB-468; format: cell-based; conditions: TNBC, MDA-MB-468, 4 days
# Method: as §1
# [4] = tested on: MDA-MB-231; experiment: AlamarBlue cell growth inhibition, MDA-MB-231; format: cell-based; conditions: TNBC, MDA-MB-231, 4 days
# Method: as §1
# [5] = tested on: MDA-MB-231 ITGA KO; experiment: AlamarBlue cell growth inhibition, ITGA3 knockout negative control line; format: cell-based; conditions: breast cancer cell line with ITGA3 subunit knocked out
# Method: MDA-MB-231 cells with ITGA3 gene knockout were generated as follows. sgRNAs targeting exon 17 ([…]) of the ITGA3 gene were subcloned using the CRISPR-Cas9-2A-Puro V2.0 (Addgene) system. MDA-MB-231 cells were transfected with CRISPR-Cas9/sgRNA and cultured at 37°C, 5% CO2 for 72 hours. Afterwards, puromycin, the selection marker for the CRISPR-Cas9 vector, was added at a concentration of 250 ng/mL and selected for 18 days. Then, the target protein knockout efficiency was measured using flow cytometry (FACS calibur, FACS Aria, BD Biosciences), and knockout cells were isolated. MDA-MB-231 cells with ITGA3 knockout, i.e., MDA-MB-231/ITGA3 KO cell lines, were analyzed by flow cytometry using 3 µg/mL PS4 antibody and anti-human Fc-gamma specific Alexa Fluor-647 (1:800 dilution, Jackson ImmunoResearch Laboratories Inc.). In addition, MDA-MB-231/ITGA3 KO cell lysate (30 µg) was separated by SDS-PAGE and analyzed by Western blot using anti-ITGA3 (Antibodies-online) and anti-mouse Fc-gamma specific-HRP. Sample loading was compared using anti-beta-actin.
# First, an appropriate number of cells (3x10^3 to 1x10^4 cells) for each cancer cell line were dispensed into each well of a 96-well plate and cultured for 24 hours at 37°C, 5% CO2, and then the medium was replaced with fresh growth medium. […] The fluorescence values were measured at Ex530 and Em590 every 2, 4, and 6 hours (PerkinElmer Victor x4). […]
# [6] = tested on: MDA-MB-453; experiment: AlamarBlue cell growth inhibition, MDA-MB-453; format: cell-based; conditions: TNBC, MDA-MB-453, 4 days
# Method: as §1
# [7] = tested on: Panc-1; experiment: AlamarBlue cell growth inhibition, Panc-1; format: cell-based; conditions: Pancreatic, Panc-1, 4 days
# Method: as §1
# [8] = tested on: Aspc-1; experiment: AlamarBlue cell growth inhibition, Aspc-1; format: cell-based; conditions: Pancreatic, Aspc-1, 4 days
# Method: as §1
# [9] = tested on: MKN45; experiment: AlamarBlue cell growth inhibition, MKN45; format: cell-based; conditions: Stomach, MKN45, 4 days
# Method: as §1
# [10] = tested on: A549; experiment: AlamarBlue cell growth inhibition, A549; format: cell-based; conditions: Lung, A549, 4 days
# Method: as §1
# [11] = tested on: UMUC-3; experiment: AlamarBlue cell growth inhibition, UMUC-3; format: cell-based; conditions: bladder, UMUC-3, 4 days
# Method: as §1
# [12] = tested on: CoCaB1; experiment: AlamarBlue cell growth inhibition, CoCaB1; format: cell-based; conditions: bladder, CoCaB1, 4 days
# Method: as §1
# [13] = tested on: SW780; experiment: AlamarBlue cell growth inhibition, SW780; format: cell-based; conditions: bladder, SW780, 4 days
# Method: as §1
# [14] = tested on: SCaBER; experiment: AlamarBlue cell growth inhibition, SCaBER; format: cell-based; conditions: bladder, 4 days
# Method: as §1
# [15] = tested on: MDA-MB-231 cells; experiment: Triple-negative breast cancer xenograft efficacy; format: in vivo, mice; conditions: MDA-MB-231 xenograft
# Method: Triple-negative breast cancer (TNBC) MDA-MB-231 cells (2x10^6 cells) were mixed with Matrigel at a 1:1 (v/v) ratio and injected subcutaneously into BALB/c nude or NOD/SCID mice (Nara Bio). When the tumor volume reached 100 mm^3, the PS4-vcMMAE antibody-drug conjugate was administered intraperitoneally at 5 mg/kg or 10 mg/kg once every 5 days for a total of 5 times. 2-3 mice were used in each group. All animal experiments were conducted in accordance with protocols approved by the Institutional Animal Care and Use Committee (IACUC) of Kangwon National University (KW-210728-3).
# [16] = tested on: PANC-1; experiment: Pancreatic cancer xenograft efficacy; format: in vivo, mice; conditions: PANC-1 xenograft, NOD/SCID
# Method: PANC-1 (3 × 10^6) cancer cells were subcutaneously injected into NOD/SCID (female 5-week-old) mice. When the tumor volume reached […], the PS4-vcMMAE conjugate was intraperitoneally injected at 5 mg/kg or 10 mg/kg once every 5 days for a total of 3 times. The control group was treated with PBS, and the efficacy was evaluated with 3-4 mice per group. After the experiment, the tumors were excised, and the size of the tumor tissues in each experimental group was compared. All animal experiments were performed in accordance with the protocol approved by the Institutional Animal Care and Use Committee (IACUC) of Kangwon National University (KW-210728-3).
molecule,measurement,setting,value
B1,Tm,[1],64.67±0.24 °C
same,IC50,[2],134 ± 43.4 nM
same,Maximum (% inhibition),[2],79.6±11.3%
same,Maximum (% inhibition),[3],89.88±2.5%
same,IC50,[4],0.77 ± 0.63 nM
same,Maximum (% inhibition),[4],77.97±2.03%
same,anticancer efficacy,[5],no anticancer efficacy was observed
same,IC50,[6],9.79 nM and 18.8 nM
same,Maximum (% inhibition),[6],96.2±0.36% and 87.9±0.61%
same,IC50,[7],2.7 ± 1.21 nM
same,Maximum (% inhibition),[7],73.78±2.18%
same,Maximum (% inhibition),[8],51.78±25.44%
same,IC50,[9],14.1 ± 4.52 nM
same,Maximum (% inhibition),[9],55.65±6.45%
same,IC50,[10],5.22 ± 2.17 nM
same,Maximum (% inhibition),[10],77.32±1.02%
same,IC50,[11],2.1 ± 1.2 nM
same,Maximum (% inhibition),[11],90.75±4.02%
same,IC50,[12],2.21 ± 1.4 nM
same,Maximum (% inhibition),[12],95.48±2.44%
same,IC50,[13],1.78 ± 1.05 nM
same,Maximum (% inhibition),[13],90.43±2.32%
same,IC50,[14],1.88 ± 0.79 nM
same,Maximum (% inhibition),[14],89.71±0.61%
same,size and weight of the extracted tumor tissue reduced,"[15]; BALB/c nude or NOD/SCID mice, intraperitoneally 5 mg/kg or 10 mg/kg once every 5 days, 5 times, vs control group",approximately 55%
same,tumor size compared to the time of drug administration,"[15]; NOD/SCID, 10 mg/kg",no significant difference
same,tumor growth,"[15]; intraperitoneally 5 mg/kg or 10 mg/kg once every 5 days, 5 times, vs control group",inhibited in a PS4-MMAE dose-dependent manner
same,tumor size reduced,[16]; 10 mg/kg,at least 60%
same,tumor growth,"[16]; intraperitoneally 5 mg/kg or 10 mg/kg once every 5 days, 3 times, vs control group (PBS)",inhibited in a PS4-MMAE dose-dependent manner
